Data reported in paper PMC6085347, “Structural basis for reactivating the mutant TERT promoter by cooperative binding of p52 and ETS1” (Nature Communications, 2018).
Each block holds one binder with its values, some of them ahead of it.

Tests used:
ETS1_(331–441), P14921 = target: T1, ETS1_(331–441), P14921; assay: ITC
T1 chain: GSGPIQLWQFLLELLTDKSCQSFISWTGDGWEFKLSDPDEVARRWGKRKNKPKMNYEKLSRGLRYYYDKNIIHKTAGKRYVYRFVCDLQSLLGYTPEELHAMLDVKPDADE

[1] = target: T2, Flag-tagged ETS1_(331–441), P14921; assay: FLAG pull-down, band densitometry; details: chain shown with the change;; parent: est. 1.0; read off a plot
T2 chain: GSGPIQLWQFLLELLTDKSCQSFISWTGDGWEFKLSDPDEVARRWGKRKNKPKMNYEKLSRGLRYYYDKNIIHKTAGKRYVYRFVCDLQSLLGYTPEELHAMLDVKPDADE

ETS1_(331–441) [2] = target: T3, ETS1_(331–441) (human, UniProt P14921 331-441); assay: ITC
T3 chain: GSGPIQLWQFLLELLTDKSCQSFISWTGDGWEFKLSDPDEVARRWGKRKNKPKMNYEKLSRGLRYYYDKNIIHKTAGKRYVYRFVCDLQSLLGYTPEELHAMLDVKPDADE

ETS1_(296–441) [3] = target: T4, ETS1_(296–441) (human, UniProt P14921 296-441); assay: ITC
T4 chain: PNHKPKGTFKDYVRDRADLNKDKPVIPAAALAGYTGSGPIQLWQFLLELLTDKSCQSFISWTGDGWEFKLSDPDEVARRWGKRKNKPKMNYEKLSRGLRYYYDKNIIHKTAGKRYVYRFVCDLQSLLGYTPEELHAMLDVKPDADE

ETS1_(296–441) [4] = target: T4, ETS1_(296–441); assay: ITC
ETS1_(331–441) [5] = target: T3, ETS1_(331–441); assay: ITC; 8 °C; 25 mM Tris-HCl pH 7.5, 200 mM NaCl, 3 mM TCEP; 20 μM ETS1 fragment in the cell titrated with 200 μM p52-RHD in the syringe; single-site model
ETS1_(296–441) [6] = target: T4, ETS1_(296–441); assay: as above
[7] = target: the molecule itself; assay: crystal structure; p52-RHD, ETS1_(331–441) and a 15 bp -146C>T TERT promoter DNA mixed 1:1:1; crystals at 18 °C in 100 mM HEPES pH 7.0, 2.0 M ammonium sulfate
[8] = target: the molecule itself; assay: cross-linking + native gel or EMSA; cysteine mutants mixed at a molar ratio of 1:2, DTT removed, disulfide cross-linking with 30 µM CuCl2 and 100 µM phenanthroline for 1 h at 25 °C; 4–16% gradient blue native PAGE; reversed with 20 mM DTT
p52-RHD;ETS1 331-441 = target: T5, p52-RHD;ETS1 331-441 (human;human, UniProt Q00653;P14921 35-329;331-441, |); assay: X-ray crystallography; ETS1 contacts the DNA; p52-DBSD disordered and p52-DSD bound to ETS1; ITC: 25 mM Tris-HCl pH 7.5, 200 mM NaCl, 3 mM TCEP, 8 °C. EMSA: 20 mM Tris-HCl pH 7.5, 150 mM NaCl, 4 °C, 1 h, 4-16% native PAGE; details: protein: recombinant;recombinant; tags: GST removed (PreScission, pGEX-6P-1);GST removed (PreScission, pGEX-6P-1); chain copies: 2;1; 5' overhang 1 nt at each end, 15 bp
T5 sequence 1: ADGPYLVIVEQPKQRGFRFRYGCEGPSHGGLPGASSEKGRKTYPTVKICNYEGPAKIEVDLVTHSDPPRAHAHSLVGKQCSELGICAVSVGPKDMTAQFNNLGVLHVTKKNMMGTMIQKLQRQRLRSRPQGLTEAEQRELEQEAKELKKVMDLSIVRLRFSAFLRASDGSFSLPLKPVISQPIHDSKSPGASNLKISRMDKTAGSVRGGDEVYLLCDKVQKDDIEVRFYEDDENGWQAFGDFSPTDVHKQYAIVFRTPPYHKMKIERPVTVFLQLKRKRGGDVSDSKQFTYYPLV
T5 sequence 2: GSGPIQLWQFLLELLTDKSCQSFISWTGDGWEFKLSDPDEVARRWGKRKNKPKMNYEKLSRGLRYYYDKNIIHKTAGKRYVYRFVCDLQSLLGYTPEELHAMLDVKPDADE

ETS1 296-441;p52-RHD = target: T6, ETS1 296-441;p52-RHD (human;human, UniProt P14921;Q00653 296-441;35-329, |); assay: ITC; 100 uM p52-RHD in cell; no enhancement over p52-DSD; ITC: 25 mM Tris-HCl pH 7.5, 200 mM NaCl, 3 mM TCEP, 8 °C. EMSA: 20 mM Tris-HCl pH 7.5, 150 mM NaCl, 4 °C, 1 h, 4-16% native PAGE; details: protein: recombinant;recombinant; tags: GST removed (PreScission, pGEX-6P-1);GST removed (PreScission, pGEX-6P-1); copies: 1;2; 5' overhang 1 nt at each end, 25 bp
T6 sequence 1: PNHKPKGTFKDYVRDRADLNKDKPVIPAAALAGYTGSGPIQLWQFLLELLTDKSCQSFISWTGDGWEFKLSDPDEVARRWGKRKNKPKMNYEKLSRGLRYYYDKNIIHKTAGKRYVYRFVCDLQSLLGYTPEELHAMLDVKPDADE
T6 sequence 2: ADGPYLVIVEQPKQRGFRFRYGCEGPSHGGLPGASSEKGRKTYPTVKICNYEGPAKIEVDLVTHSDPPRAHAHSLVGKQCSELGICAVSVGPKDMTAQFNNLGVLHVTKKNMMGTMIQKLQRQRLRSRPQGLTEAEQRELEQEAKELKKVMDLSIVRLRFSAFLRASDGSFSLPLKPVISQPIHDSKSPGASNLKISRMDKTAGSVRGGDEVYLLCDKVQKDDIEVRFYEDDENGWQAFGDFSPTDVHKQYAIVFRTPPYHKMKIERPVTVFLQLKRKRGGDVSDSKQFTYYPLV

ETS1 296-441;p52-DSD [9] = target: T7, ETS1 296-441;p52-DSD (human;human, UniProt P14921;Q00653 296-441;226-328, |); assay: ITC; 100 uM p52-DSD in cell; greater affinity than ETS1 alone; ITC: 25 mM Tris-HCl pH 7.5, 200 mM NaCl, 3 mM TCEP, 8 °C. EMSA: 20 mM Tris-HCl pH 7.5, 150 mM NaCl, 4 °C, 1 h, 4-16% native PAGE; details: protein: recombinant;recombinant; tags: GST removed (PreScission, pGEX-6P-1);GST removed (PreScission, pGEX-6P-1); copies: 1;2; 5' overhang 1 nt at each end, 25 bp
T7 sequence 1: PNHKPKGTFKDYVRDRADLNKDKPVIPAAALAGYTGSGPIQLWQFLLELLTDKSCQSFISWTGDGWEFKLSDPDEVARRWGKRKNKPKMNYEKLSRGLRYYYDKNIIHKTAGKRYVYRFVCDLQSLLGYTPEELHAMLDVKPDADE
T7 sequence 2: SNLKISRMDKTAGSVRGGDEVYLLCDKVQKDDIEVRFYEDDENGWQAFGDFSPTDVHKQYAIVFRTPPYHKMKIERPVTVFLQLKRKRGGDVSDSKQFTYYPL

ETS1 296-441;p52-DSD [10] = target: T7, ETS1 296-441;p52-DSD; assay: ITC; 100 uM p52-DSD in cell; flanks make no contribution to affinity; ITC: 25 mM Tris-HCl pH 7.5, 200 mM NaCl, 3 mM TCEP, 8 °C. EMSA: 20 mM Tris-HCl pH 7.5, 150 mM NaCl, 4 °C, 1 h, 4-16% native PAGE; details: protein: recombinant;recombinant; tags: GST removed (PreScission, pGEX-6P-1);GST removed (PreScission, pGEX-6P-1); copies: 1;2; blunt

B6: p52-RHD RMK>A (domain or fragment)
chain: ADGPYLVIVEQPKQRGFRFRYGCEGPSHGGLPGASSEKGRKTYPTVKICNYEGPAKIEVDLVTHSDPPRAHAHSLVGKQCSELGICAVSVGPKDMTAQFNNLGVLHVTKKNMMGTMIQKLQRQRLRSRPQGLTEAEQRELEQEAKELKKVMDLSIVRLRFSAFLRASDGSFSLPLKPVISQPIHDSKSPGASNLKISRMDKTAGSVAGGDEVYLLCDKVQKDDIEVRFYEDDENGWQAFGDFSPTDVHKQYAIVFRTPPYHKAAIERPVTVFLQLKRKRGGDVSDSKQFTYYPLV
fold reduction of binding against WT p52 (ETS1_(331–441) [5]): 5 fold

B7: p52-RHD (R241C, C57S, and C83S) (domain or fragment, human, UniProt Q00653 35-329, looked up)
chain: ADGPYLVIVEQPKQRGFRFRYGSEGPSHGGLPGASSEKGRKTYPTVKISNYEGPAKIEVDLVTHSDPPRAHAHSLVGKQCSELGICAVSVGPKDMTAQFNNLGVLHVTKKNMMGTMIQKLQRQRLRSRPQGLTEAEQRELEQEAKELKKVMDLSIVRLRFSAFLRASDGSFSLPLKPVISQPIHDSKSPGASNLKISRMDKTAGSVCGGDEVYLLCDKVQKDDIEVRFYEDDENGWQAFGDFSPTDVHKQYAIVFRTPPYHKMKIERPVTVFLQLKRKRGGDVSDSKQFTYYPLV
modifications: disulfide from Cys241 to Cys343 of ETS1_(331–441) (E343C and C350S) after cross-linking with CuCl2 and phenanthroline
binding result [8]: binds

B8: 15 bp -146C>T TERT promoter DNA (dsDNA)
DNA 1: GCCCTTCCGGGTCCCC
DNA 2: CGGGGACCCGGAAGGG
binding result (p52-RHD;ETS1 331-441): binds

B9: 25 bp -146C>T TERT promoter DNA (dsDNA)
DNA 1: GTCCCGACCCCTTCCGGGTCCCCGGC
DNA 2: CGCCGGGGACCCGGAAGGGGTCGGGA
binding result (ETS1 296-441;p52-RHD): binds
binding result (ETS1 296-441;p52-DSD [9]): binds

B10: 10 bp -146C>T TERT promoter DNA (dsDNA)
DNA 1: CCCTTCCGGG
DNA 2: CCCGGAAGGG
binding result (ETS1 296-441;p52-DSD [10]): binds

Second part, led by results:

Kd (ETS1_(331–441), P14921; chain shown with the change): 33.2 µM
Ka (ETS1_(331–441), P14921; chain shown with the change;, parent: 1.48E5 ± 1.07E4): 30100 M⁻¹
ratio to parent [1]: 0.26
B1: p52-RHD (residues 35–329), Q00653 R241A; M297A; K298A (protein)
chain: ADGPYLVIVEQPKQRGFRFRYGCEGPSHGGLPGASSEKGRKTYPTVKICNYEGPAKIEVDLVTHSDPPRAHAHSLVGKQCSELGICAVSVGPKDMTAQFNNLGVLHVTKKNMMGTMIQKLQRQRLRSRPQGLTEAEQRELEQEAKELKKVMDLSIVRLRFSAFLRASDGSFSLPLKPVISQPIHDSKSPGASNLKISRMDKTAGSVAGGDEVYLLCDKVQKDDIEVRFYEDDENGWQAFGDFSPTDVHKQYAIVFRTPPYHKAAIERPVTVFLQLKRKRGGDVSDSKQFTYYPLV

ratio to parent [1]: 0.69
B2: p52-RHD (residues 35–329), Q00653 K298A (protein)
chain: ADGPYLVIVEQPKQRGFRFRYGCEGPSHGGLPGASSEKGRKTYPTVKICNYEGPAKIEVDLVTHSDPPRAHAHSLVGKQCSELGICAVSVGPKDMTAQFNNLGVLHVTKKNMMGTMIQKLQRQRLRSRPQGLTEAEQRELEQEAKELKKVMDLSIVRLRFSAFLRASDGSFSLPLKPVISQPIHDSKSPGASNLKISRMDKTAGSVRGGDEVYLLCDKVQKDDIEVRFYEDDENGWQAFGDFSPTDVHKQYAIVFRTPPYHKMAIERPVTVFLQLKRKRGGDVSDSKQFTYYPLV

ratio to parent [1]: 0.72
B3: p52-RHD (residues 35–329), Q00653 M297A (protein)
chain: ADGPYLVIVEQPKQRGFRFRYGCEGPSHGGLPGASSEKGRKTYPTVKICNYEGPAKIEVDLVTHSDPPRAHAHSLVGKQCSELGICAVSVGPKDMTAQFNNLGVLHVTKKNMMGTMIQKLQRQRLRSRPQGLTEAEQRELEQEAKELKKVMDLSIVRLRFSAFLRASDGSFSLPLKPVISQPIHDSKSPGASNLKISRMDKTAGSVRGGDEVYLLCDKVQKDDIEVRFYEDDENGWQAFGDFSPTDVHKQYAIVFRTPPYHKAKIERPVTVFLQLKRKRGGDVSDSKQFTYYPLV

ratio to parent [1]: 0.51
B4: p52-RHD (residues 35–329), Q00653 R241A (protein)
chain: ADGPYLVIVEQPKQRGFRFRYGCEGPSHGGLPGASSEKGRKTYPTVKICNYEGPAKIEVDLVTHSDPPRAHAHSLVGKQCSELGICAVSVGPKDMTAQFNNLGVLHVTKKNMMGTMIQKLQRQRLRSRPQGLTEAEQRELEQEAKELKKVMDLSIVRLRFSAFLRASDGSFSLPLKPVISQPIHDSKSPGASNLKISRMDKTAGSVAGGDEVYLLCDKVQKDDIEVRFYEDDENGWQAFGDFSPTDVHKQYAIVFRTPPYHKMKIERPVTVFLQLKRKRGGDVSDSKQFTYYPLV

Ka (ETS1_(331–441) [2]): 148000 M⁻¹
Kd (ETS1_(296–441) [3]): 19.1 µM
Ka (ETS1_(296–441) [4]): 52400 M⁻¹
Kd (ETS1_(331–441) [5]): 6.76 µM
fold reduction of binding against ETS1 (331–441) (ETS1_(296–441) [6]): 3 fold
B5: p52-RHD (residues 35–329) (domain or fragment, human, UniProt Q00653 35-329, looked up)
chain: ADGPYLVIVEQPKQRGFRFRYGCEGPSHGGLPGASSEKGRKTYPTVKICNYEGPAKIEVDLVTHSDPPRAHAHSLVGKQCSELGICAVSVGPKDMTAQFNNLGVLHVTKKNMMGTMIQKLQRQRLRSRPQGLTEAEQRELEQEAKELKKVMDLSIVRLRFSAFLRASDGSFSLPLKPVISQPIHDSKSPGASNLKISRMDKTAGSVRGGDEVYLLCDKVQKDDIEVRFYEDDENGWQAFGDFSPTDVHKQYAIVFRTPPYHKMKIERPVTVFLQLKRKRGGDVSDSKQFTYYPLV
notes: In the crystal only residues 226-328 (p52-DSD) are ordered; two p52-DSD form a homodimer through a crystallographic 2-fold axis; also called WT p52
binding result [7]: binds
